Measured values reported in publication PMC4423211 (2015).
pKd: −log10 of the molar value. One block for each substance: values may come before it.

Experiments:
[1] = target: IL1RAPL1-ECD-His6, wild type (mouse) (UniProt P59823); assay: SPR; equilibrium; Biacore T200, 25 °C, 10 mM Hepes (pH 7.9), 150 mM NaCl, 0.05% Tween-20; IL1RAPL1-ECD-His6 amine-coupled on a CM5 chip (about 2,000 RU); PTPδ Ig1–Fn1 variants or mutants injected as analytes, 15.6 to 4,000 nM
[2] = target: IL1RAPL1-ECD D292A (mouse) (UniProt P59823); assay: as above
Sequence of IL1RAPL1-ECD D292A (mouse) (P59823 19-352 D292A): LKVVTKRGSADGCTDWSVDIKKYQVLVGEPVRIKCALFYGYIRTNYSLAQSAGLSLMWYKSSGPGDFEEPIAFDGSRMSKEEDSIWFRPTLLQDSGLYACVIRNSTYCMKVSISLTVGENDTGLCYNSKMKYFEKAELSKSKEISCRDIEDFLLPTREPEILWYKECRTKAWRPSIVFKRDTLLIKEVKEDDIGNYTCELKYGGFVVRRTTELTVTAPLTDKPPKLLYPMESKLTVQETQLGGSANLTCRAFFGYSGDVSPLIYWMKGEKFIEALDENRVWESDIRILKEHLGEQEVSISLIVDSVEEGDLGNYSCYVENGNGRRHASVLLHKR

[3] = target: IL1RAPL1-ECD D37A (mouse) (UniProt P59823); assay: as above
Sequence of IL1RAPL1-ECD D37A (mouse) (P59823 19-352 D37A): as the sequence (P59823 19-352 D292A) above, with D19A, A274D counted along it

[4] = target: IL1RAPL1-ECD M75A/Y77A/P88A/F91A (mouse) (UniProt P59823); assay: as above
Sequence of IL1RAPL1-ECD M75A/Y77A/P88A/F91A (mouse) (P59823 19-352 M75A/Y77A/P88A/F91A): as the sequence (P59823 19-352 D292A) above, with M57A, Y59A, P70A, F73A, A274D counted along it

[5] = target: IL-1RAcP-ECD-Fc, wild type (mouse) (UniProt Q61730); assay: SPR; equilibrium; Biacore T200, 25 °C, 10 mM Hepes (pH 7.9), 150 mM NaCl, 0.05% Tween-20; IL-1RAcP-ECD-Fc captured (about 700 RU) by anti-Fc antibodies immobilised on a CM5 chip; PTPδ Ig1–Fn1 variants or mutants injected as analytes, 15.6 to 4,000 nM
Sequence of IL-1RAcP-ECD-Fc, wild type (mouse) (Q61730 21-367): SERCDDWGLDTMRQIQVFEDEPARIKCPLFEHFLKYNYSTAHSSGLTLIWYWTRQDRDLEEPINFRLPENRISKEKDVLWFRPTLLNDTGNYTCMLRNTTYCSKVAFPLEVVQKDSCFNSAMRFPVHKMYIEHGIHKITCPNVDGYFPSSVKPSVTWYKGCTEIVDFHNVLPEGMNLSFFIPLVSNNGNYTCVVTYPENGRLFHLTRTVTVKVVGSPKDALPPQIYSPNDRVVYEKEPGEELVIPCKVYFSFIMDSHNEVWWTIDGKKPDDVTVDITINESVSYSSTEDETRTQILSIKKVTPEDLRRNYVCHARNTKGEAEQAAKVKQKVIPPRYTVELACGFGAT

[6] = target: IL-1RAcP-ECD K94A (mouse) (UniProt Q61730); assay: as above
Sequence of IL-1RAcP-ECD K94A (mouse) (Q61730 21-367 K94A): as the sequence (Q61730 21-367) above, with K74A counted along it

[7] = target: IL-1RAcP-ECD W27A (mouse) (UniProt Q61730); assay: as above
Sequence of IL-1RAcP-ECD W27A (mouse) (Q61730 21-367 W27A): as the sequence (Q61730 21-367) above, with W7A counted along it

[8] = target: IL-1RAcP-ECD D30A (mouse) (UniProt Q61730); assay: as above
Sequence of IL-1RAcP-ECD D30A (mouse) (Q61730 21-367 D30A): as the sequence (Q61730 21-367) above, with D10A counted along it

[9] = target: IL-1RAcP-ECD (His6-tagged, for crystallography) (mouse) (UniProt Q61730); assay: crystal structure; sitting drop vapour diffusion at 20 °C; the two proteins mixed at a molar ratio of 1:1 to about 6 g/l before crystallisation
Sequence of IL-1RAcP-ECD (His6-tagged, for crystallography) (mouse) (Q61730 21-351): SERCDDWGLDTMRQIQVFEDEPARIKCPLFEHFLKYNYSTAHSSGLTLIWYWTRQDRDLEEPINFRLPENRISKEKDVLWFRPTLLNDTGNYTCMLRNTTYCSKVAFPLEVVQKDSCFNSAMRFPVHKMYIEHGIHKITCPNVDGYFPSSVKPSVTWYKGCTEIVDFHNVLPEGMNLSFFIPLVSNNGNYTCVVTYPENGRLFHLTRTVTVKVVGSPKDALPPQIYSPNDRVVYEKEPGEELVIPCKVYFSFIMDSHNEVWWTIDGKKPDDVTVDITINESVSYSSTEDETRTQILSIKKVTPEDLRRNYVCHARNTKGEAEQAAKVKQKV

[10] = target: IL1RAPL1-ECD-His6, wild type (mouse) (UniProt P59823); assay: as above

Sequence of IL1RAPL1-ECD-His6, wild type (mouse) (P59823 19-352): as the sequence (P59823 19-352 D292A) above, with A274D counted along it

pKd [1]: 6.82
pKd [2]: 5.66
pKd [3]: 5.62
pKd [4]: 5.55
pKd [5]: 6.17
pKd [6]: 5.09
pKd [7]: 5.34
pKd [8]: 6.21
Substance: PTPδ Ig1–Fn1 (isoform containing meA9 and meB), wild type (domain or fragment)

stoichiometry N [9]: 1
Substance: PTPδ Ig1–Fn2 (domain or fragment)

stoichiometry N [10]: 1
Substance: PTPδ-ECD (full-length extracellular domain) (domain or fragment)
